Experimental findings from patent publication US20110142789A1 (University of Pennsylvania, published 2011) are described below.

For this assay, the target named is T1, endogenous human Ataxin-2 (human, UniProt Q99700 1-1313, limits assumed).
T1 construct: Endogenous protein in HEK293T lysate, detected by immunoblot with α-Ataxin-2 (BD); also called ATXN2
Put plainly: co-immunoprecipitation from HEK293T lysate (α-GFP IP, α-Ataxin-2 blot). The source says:
CFP-Pbp1 and TDP-43-YFP show accumulations in yeast that frequently co-localize (arrows). b) Co-immunoprecipitation assays in yeast. Yeast cells co-transformed with untagged TDP-43 and either CFP-Pbp1 or CFP alone were lysed and subjected to immunoprecipitation with an α-GFP antibody (also detects CFP), then subjected to immunoblotting with a-TDP43. […] HEK293T cells were transfected with expression constructs encoding YFP, TDP-43-YFP, TDP-43ΔNLS-YFP (NLS mutant that localizes the protein to the cytoplasm), TDP-43_{ΔNLS,5F}_{_{→}}L-YFP (NLS mutant coupled with RNA-binding mutant, (5 point mutations in the RRM domains that abolish RNA-binding)), or TDP-435F_{_{→}}L-YFP (RNA-binding mutant). Protein was immunoprecipitated with a-GFP antibody (detects YFP), and then subjected to immunoblotting with a-Ataxin-2 to detect endogenous Ataxin-2. […] The interaction between Ataxin-2 and TDP-43 seen normally (left lanes) was abolished upon RNase treatment (right lanes). e) HEK293T cells transfected with YFP-tagged WT and mutant TDP-43 constructs then immunostained for endogenous Ataxin-2. Normally, Ataxin-2 is localized to the cytoplasm forming occasional cytoplasmic accumulations. TDP-43 localized to the nucleus in a diffuse pattern. […]

T1 sequence (Q99700 whole entry): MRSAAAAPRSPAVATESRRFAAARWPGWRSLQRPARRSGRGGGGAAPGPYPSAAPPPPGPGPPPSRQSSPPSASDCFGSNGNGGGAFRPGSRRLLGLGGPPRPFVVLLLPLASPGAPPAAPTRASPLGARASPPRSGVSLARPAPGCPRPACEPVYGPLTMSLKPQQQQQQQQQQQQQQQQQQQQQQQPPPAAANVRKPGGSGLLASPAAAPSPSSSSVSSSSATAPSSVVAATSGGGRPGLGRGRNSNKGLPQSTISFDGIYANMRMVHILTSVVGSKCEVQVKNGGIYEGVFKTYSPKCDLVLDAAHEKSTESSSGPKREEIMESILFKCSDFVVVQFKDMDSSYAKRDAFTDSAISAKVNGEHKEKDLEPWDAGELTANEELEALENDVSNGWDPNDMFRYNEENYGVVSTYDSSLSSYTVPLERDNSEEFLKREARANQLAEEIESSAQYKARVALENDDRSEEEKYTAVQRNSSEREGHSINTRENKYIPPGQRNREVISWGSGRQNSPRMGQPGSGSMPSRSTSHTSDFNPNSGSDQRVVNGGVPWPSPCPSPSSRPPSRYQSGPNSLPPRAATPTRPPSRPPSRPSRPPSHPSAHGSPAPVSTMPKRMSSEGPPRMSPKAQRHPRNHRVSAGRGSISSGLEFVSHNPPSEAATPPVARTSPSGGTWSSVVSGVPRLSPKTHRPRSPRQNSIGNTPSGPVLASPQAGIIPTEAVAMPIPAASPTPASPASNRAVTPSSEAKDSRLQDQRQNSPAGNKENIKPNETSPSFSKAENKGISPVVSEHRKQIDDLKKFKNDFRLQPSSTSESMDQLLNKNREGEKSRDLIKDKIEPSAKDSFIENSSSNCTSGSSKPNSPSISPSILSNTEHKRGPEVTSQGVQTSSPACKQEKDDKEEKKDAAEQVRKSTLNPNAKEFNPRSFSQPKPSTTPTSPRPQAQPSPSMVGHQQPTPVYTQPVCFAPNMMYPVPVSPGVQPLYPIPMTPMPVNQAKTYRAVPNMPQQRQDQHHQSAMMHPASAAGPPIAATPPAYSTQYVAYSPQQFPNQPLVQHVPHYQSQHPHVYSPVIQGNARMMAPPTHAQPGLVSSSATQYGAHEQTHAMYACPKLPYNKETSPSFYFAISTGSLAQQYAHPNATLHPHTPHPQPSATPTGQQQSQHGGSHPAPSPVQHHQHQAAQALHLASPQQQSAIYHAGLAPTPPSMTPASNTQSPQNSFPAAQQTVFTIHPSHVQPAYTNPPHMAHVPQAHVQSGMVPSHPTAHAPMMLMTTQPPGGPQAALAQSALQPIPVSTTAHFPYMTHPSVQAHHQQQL

B1: TDP-43ΔNLS,5F→L-YFP (other, human, UniProt Q13148 1-414, looked up)
chain: MSEYIRVTEDENDEPIEIPSEDDGTVLLSTVTAQFPGACGLRYRNPVSQCMRGVRLVEGILHAPDAGWGNLVYVVNYPKDNAAAMDETDASSAVKVKRAVQKTSDLIVLGLPWKTTEQDLKEYFSTFGEVLMVQVKKDLKTGHSKGLGLVRFTEYETQVKVMSQRHMIDGRWCDCKLPNSKQSQDEPLRSRKVLVGRCTEDMTEDELREFFSQYGDVMDVFIPKPFRALALVTFADDQIAQSLCGEDLIIKGISVHISNAEPKHNSNRQLERSGRFGGNPGGFGNQGGFGNSRGGGAGLGNNQGSNMGGGMNFGAFSINPAMMAAAQAALQSSWGMMGMLASQQNQSGPSGNNQNQGNMQREPNQAFGSGNNSYSGSNSGAAIGWGSASNAGSGSGFNGGFGSSMDSKSSGWGM
notes: also called ΔNLS-TDP-43-(5F→L)-YFP; not shown: C-terminal YFP tag
Consider B1, for which the binding result is recorded as “no binding”.
